In patent US7297515 (MYRIAD GENETICS, dated 2007):

How the values were obtained:
[1] = biological target: T1, zinc finger protein 202, alt. transcript beta (ZNF202b), bait fragment amino acids 1-224 (human, UniProt P04386 1-147; O95125 1-224); experiment: yeast two-hybrid; prey fragment isolated with ZNF202b bait 1-224
T1 construct: also called ZNF202beta; ZNF202 m1
Description: (§1) In these yeast cells, the bait was produced as a C-terminal fusion protein with the DNA binding domain of the transcription factor Gal4 (amino acids 1 to 147). Prey libraries were transformed into the yeast strain BK100 (genotype of this strain: MATa trp1-901 leu2-3,112 ura3-52 his3-200 gal4Δ gal80 LYS2::GAL-HIS3 GAL2-ADE2 met2::GAL7-lacZ), and selected for the ability to drive leucine synthesis. In these yeast cells, each cDNA was expressed as a fusion protein with the transcription activation domain of the transcription factor Gal4 (amino acids 768 to 881) and a 9 amino acid hemagglutinin epitope tag. PNY200 cells (MATα mating type), expressing the bait, were then mated with BK100 cells (MATa mating type), expressing prey proteins from a prey library. The resulting diploid yeast cells expressing proteins interacting with the bait protein were selected for the ability to synthesize tryptophan, leucine, histidine, and adenine. DNA was prepared from each clone, transformed by electroporation into *E. coli* strain KC8 (Clontech KC8 electrocompetent cells, Catalog No. C2023-1), and the cells were selected on ampicillin-containing plates in the absence of either tryptophane (selection for the bait plasmid) or leucine (selection for the library plasmid). DNA for both plasmids was prepared and sequenced by the dideoxynucleotide chain termination method. […]

[2] = biological target: T2, zinc finger protein 202, alt. transcript beta (ZNF202b), bait fragment amino acids 1-199 (human, UniProt P04386 1-147; O95125 1-199); experiment: yeast two-hybrid; prey fragment isolated with ZNF202b bait 1-199
T2 construct: also called ZNF202beta; ZNF202 m1
Description: as §1

[3] = biological target: T3, novel protein PN1851, fragment residues 14-369 (human, UniProt P04386 768-881 (Saccharomyces cerevisiae entry)); experiment: yeast two-hybrid search, bait ZNF202 33-118
T3 construct: range 768-881
Description: The new construct was selected directly in the yeast strain PNY200 for its ability to drive tryptophane synthesis (genotype of this strain: MATα trp1-901 leu2-3, 112 ura3-52 his3-200 ade2 gal4Δ gal80). In these yeast cells, the bait was produced as a C-terminal fusion protein with the DNA binding domain of the transcription factor Gal4 (amino acids 1 to 147). Prey libraries were transformed into the yeast strain BK100 (genotype of this strain: MATa trp1-901 leu2-3,112 ura3-52 his3-200 gal4Δ gal80 LYS2::GAL-HIS3 GAL2-ADE2 met2::GAL7-lacZ), and selected for the ability to drive leucine synthesis. In these yeast cells, each cDNA was expressed as a fusion protein with the transcription activation domain of the transcription factor Gal4 (amino acids 768 to 881) and a 9 amino acid hemagglutinin epitope tag. PNY200 cells (MATα mating type), expressing the bait, were then mated with BK100 cells (MATa mating type), expressing prey proteins from a prey library. The resulting diploid yeast cells expressing proteins interacting with the bait protein were selected for the ability to synthesize tryptophan, leucine, histidine, and adenine. […]

Binder	binding result [1]	binding result [2]	binding result [3]
novel protein PN7745, prey fragment amino acids 2-171 (other, not shown: small tags and cut ends, range 768-881; Yeast two-hybrid prey) ANFNQSGNIADSSLSFTFTNSSNGPNLITTQTNSQALSQPIASSNVHDNFMNNEITASKIDDGNNSKPLSPGWTDQTAYNAFGITTGMFNTTTMDDVYNYLFDDEDTPPNPKKEQAVVPLNKMTAISPEPQTLASTEQNEVPRVVTSGEQEAILRGNAADAESFRQRFRWFCYSEVAGPRKALSQLWELCNQWLRPDIHTKEQILELLVFEQFLTILPGEIRIWVKSQHPESSEEVVTLIEDLTQILEEKDPVSEDSTVSQEENSKEDKMVTVCPNTESCESAL	binds	binds	–
zinc finger protein 202, alt. transcript beta (ZNF202b), bait fragment amino acids 33-118 (other, UniProt P04386 1-147, looked up, also called ZNF202beta; ZNF202 m1) MKLLSSIEQACDICRLKKLKCSKEKPKCAKCLKNNWECRYSPKTKRSPLTRAHLTEVESRLERLEQLFLLIFPREDLDMILKMDSLQDIKALLTGLFVQDNVNKDAVTDRLASVETDMPLTLRQHRISATSSSEESSNKGQRQLTVSSVLQRDDPVLETSHQNFRRFRYQEAASPREALIRLRELCHQWLRPERRTKEQILELLVLEQFLTVLPGELQSWVRGQRPESGEEAV	–	–	binds
novel protein PN7745, prey fragment amino acids 2-156 (other, not shown: small tags and cut ends, range 768-881; Yeast two-hybrid prey) ANFNQSGNIADSSLSFTFTNSSNGPNLITTQTNSQALSQPIASSNVHDNFMNNEITASKIDDGNNSKPLSPGWTDQTAYNAFGITTGMFNTTTMDDVYNYLFDDEDTPPNPKKEQAVVPLNKMTAISPEPQTLASTEQNEVPRVVTSGEQEAILRGNAADAESFRQRFRWFCYSEVAGPRKALSQLWELCNQWLRPDIHTKEQILELLVFEQFLTILPGEIRIWVKSQHPESSEEVVTLIEDLTQILEEKDPVSEDSTVSQEENSKEDK	binds	–	–
novel protein PN7745, prey fragment amino acids 44-171 (other, not shown: small tags and cut ends, range 768-881; Yeast two-hybrid prey) ANFNQSGNIADSSLSFTFTNSSNGPNLITTQTNSQALSQPIASSNVHDNFMNNEITASKIDDGNNSKPLSPGWTDQTAYNAFGITTGMFNTTTMDDVYNYLFDDEDTPPNPKKENAADAESFRQRFRWFCYSEVAGPRKALSQLWELCNQWLRPDIHTKEQILELLVFEQFLTILPGEIRIWVKSQHPESSEEVVTLIEDLTQILEEKDPVSEDSTVSQEENSKEDKMVTVCPNTESCESAL	–	binds	–
